Legend:
[1] = target: Egg nucleoplasmin (eNP) from Xenopus laevis (X. laevis) (UniProt P05221); experiment: native gel or EMSA; 2D electrophoresis (4–16% native PAGE, then 12.5% SDS–PAGE) of the high molecular mass complex and densitometry with known amounts of each protein as standards; Buffer I, 240 mM NaCl
[2] = target: Egg nucleoplasmin (eNP) from Xenopus laevis (X. laevis) (UniProt P05221); experiment: AUC; sedimentation equilibrium, Buffer I (0.24 M NaCl), NP 0.3 µM, 4°C, 8000 and 12 000 rpm, fit to a single ideal species
[3] = target: Egg nucleoplasmin (eNP) from Xenopus laevis (X. laevis) (UniProt P05221); experiment: co-sedimentation; 5–20% sucrose gradient in Buffer I (240 mM NaCl), NP 0.9 µM mixed with histones, 1 h 25°C, 29 000 rpm 22 h 4°C; fractions by A230 and SDS–PAGE

UniProt P05221, sequence (P05221 whole entry): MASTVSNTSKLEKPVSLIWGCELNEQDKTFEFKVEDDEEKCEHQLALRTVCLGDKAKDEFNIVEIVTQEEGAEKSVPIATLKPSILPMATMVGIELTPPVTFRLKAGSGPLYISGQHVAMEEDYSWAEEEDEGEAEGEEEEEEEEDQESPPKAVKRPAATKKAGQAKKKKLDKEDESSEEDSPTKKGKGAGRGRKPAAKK

Substance: Natural source histones H3-H4 from chicken erythrocyte chromatin (from UniProt P84229 1-136; P70081 1-103) (complex)
- stoichiometry N (H3-H4 dimers per NP pentamer) [1]: 2.1

Substance: Natural source histone octamer from chicken erythrocyte chromatin (from UniProt P70081 1-103) (complex)
- stoichiometry N (eNP pentamers per histone octamer) [2]: 2
- stoichiometry N (octamer per NP pentamer) [3]: 0.5
- stoichiometry N (octamer per NP pentamer) [1]: 0.54

From article PMC3902905
